Experiments:
[1] = molecular target: Human eotaxin (human) (UniProt P51671); assay: cell-based or functional assay
[2] = molecular target: Human eotaxin (human) (UniProt P51671); assay: Flash Plate scintillation competition: unlabelled CAT-212 against coated CAT-212 for [125I]eotaxin; mean of 4 estimates
[3] = molecular target: Human eotaxin (human) (UniProt P51671); assay: not stated (summary sentence in the introduction)
[4] = molecular target: Human eotaxin (human) (UniProt P51671); assay: saturation binding of [125I]eotaxin to coated CAT-212 on a Flash Plate, Scatchard plot

- IC50, inhibition of eotaxin-induced Ca2+ flux in CCR3 cells (FLIPR, area under the curve) [1]: 5 nM
- IC50, inhibition of eotaxin-mediated chemotaxis of CCR3-transfected L1.2 cells [1]: 0.65 nM
- improvement in chemotaxis neutralisation potency over scFv 3G3 [1]: 1000 fold
- IC50 [2]: 0.0425 nM
- Kd [3]: 0.015 nM
- Kd [4]: 0.146 nM
B1: CAT-212 (scFv, part only; not given: scFv linker and myc/His tag, V domains shown, not shown: another chain or arm of the molecule; small tags and cut ends)
VH: QVQLVQSGGGVVQPGRSLRLSCAASGFTFSSYGMHWVRQAPGKGLEWVAVISYDGSIKHYADSVKGRFTISRDNSKNTLYLQMNSLRTDDTAVYYCAGDTDYGDIDPWGQGTMVTVSS
VL: DIQMTQSPSSVSASVGDRVTITCRASQDISSWLAWYQQKPGKAPKLLIYAASSLQSGVPSRFSGSGSGTDFTLTISSLQPEDFATYYCQQASSFPSITFGQGTRLEIK

From patent publication US20020098523A1
